Experimental data reported in the supplement of paper PMC9112550, “Optimization of the antimicrobial peptide Bac7 by deep mutational scanning” (BMC Biology, 2022).

test system: Escherichia coli TOP10; experiment: shrunken log2 fold change of peptide-encoding DNA abundance (4.5 h post-induction vs induction); higher = less antimicrobial activity (less host growth inhibition); settings: time post-induction: 4.5 h; library: site-saturation at positions 5, 18, 19, 20
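Further: peptides expressed intracellularly from a pBAD plasmid library in pooled LB shake-flask culture, induced with 0.3% L-arabinose, DNA abundance read by NGS, three biological replicates, DESeq2 with apeglm shrinkage.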

Row | Sequence | shrunken log2 fold change
1 | RRIRMRPPRLPRPRPRPQHGPRP | 0.0121
2 | RRIRVRPPRLPRPRPRPQAWPRP | 0.416
3 | RRIRVRPPRLPRPRPRPSCMPRP | -0.136
4 | RRIRWRPPRLPRPRPRPQYEPRP | 0.0857
5 | RRIRMRPPRLPRPRPRPWGYPRP | 0.101
6 | RRIRMRPPRLPRPRPRPNPHPRP | 0.269
7 | RRIRCRPPRLPRPRPRPEKCPRP | 0.209
8 | RRIRPRPPRLPRPRPRPTCDPRP | 0.052
9 | RRIRVRPPRLPRPRPRPDIKPRP | -0.912
10 | RRIRWRPPRLPRPRPRPDPWPRP | 0.0147
11 | RRIRPRPPRLPRPRPRPTILPRP | -0.104
12 | RRIRYRPPRLPRPRPRPDHRPRP | -0.227
13 | RRIRYRPPRLPRPRPRPRILPRP | -0.276
14 | RRIRYRPPRLPRPRPRPRGKPRP | 0.158
15 | RRIRDRPPRLPRPRPRPNGFPRP | -0.0113
16 | RRIRERPPRLPRPRPRPIRWPRP | -0.0251
17 | RRIRARPPRLPRPRPRPEKGPRP | -0.0434
18 | RRIRCRPPRLPRPRPRPLQWPRP | -0.0609
19 | RRIRCRPPRLPRPRPRPKQYPRP | -0.629
20 | RRIRWRPPRLPRPRPRPNTNPRP | -0.294
21 | RRIRWRPPRLPRPRPRPGENPRP | -0.0316
22 | RRIRARPPRLPRPRPRPCAGPRP | 0.477
23 | RRIRIRPPRLPRPRPRPLWMPRP | -0.303
24 | RRIRFRPPRLPRPRPRPQQSPRP | -0.0219
25 | RRIRHRPPRLPRPRPRPSIYPRP | -0.418

Row | Sequence | shrunken log2 fold change
26 | RRIRRRPPRLPRPRPRPVSTPRP | -0.134
27 | RRIRNRPPRLPRPRPRPCTFPRP | -0.0494
28 | RRIRMRPPRLPRPRPRPEKDPRP | 2.62
29 | RRIRPRPPRLPRPRPRPLGGPRP | 1.53
30 | RRIRLRPPRLPRPRPRPWPSPRP | 0.341
31 | RRIRWRPPRLPRPRPRPHIWPRP | -0.131
32 | RRIRCRPPRLPRPRPRPRNIPRP | -0.33
33 | RRIRYRPPRLPRPRPRPTGHPRP | 0.0155
34 | RRIRDRPPRLPRPRPRPCTQPRP | 0.0408
35 | RRIRARPPRLPRPRPRPTIMPRP | 0.15
36 | RRIRNRPPRLPRPRPRPKVHPRP | 0.0346
37 | RRIRERPPRLPRPRPRPSMDPRP | -0.355
38 | RRIRRRPPRLPRPRPRPNGSPRP | 0.183
39 | RRIRVRPPRLPRPRPRPQSIPRP | -0.176
40 | RRIRQRPPRLPRPRPRPFFAPRP | 0.414
41 | RRIRGRPPRLPRPRPRPDWVPRP | 0.287
42 | RRIRKRPPRLPRPRPRPKYNPRP | -0.267
43 | RRIRWRPPRLPRPRPRPDGCPRP | 0.0109
44 | RRIRERPPRLPRPRPRPGPLPRP | -0.127
45 | RRIRGRPPRLPRPRPRPCWNPRP | 0.183
46 | RRIRTRPPRLPRPRPRPGTLPRP | 0.16
47 | RRIRCRPPRLPRPRPRPNTHPRP | -0.499
48 | RRIRVRPPRLPRPRPRPLYTPRP | -0.345
49 | RRIRPRPPRLPRPRPRPEVFPRP | 0.0976
50 | RRIRWRPPRLPRPRPRPKYIPRP | -0.0755

Row | Sequence | shrunken log2 fold change
51 | RRIRFRPPRLPRPRPRPEIYPRP | 0.0026
52 | RRIRNRPPRLPRPRPRPGNQPRP | -0.00674
53 | RRIRMRPPRLPRPRPRPWLIPRP | 0.0295
54 | RRIRSRPPRLPRPRPRPLEVPRP | -0.103
55 | RRIRHRPPRLPRPRPRPLQGPRP | 0.00978
56 | RRIRVRPPRLPRPRPRPSWNPRP | -0.371
57 | RRIRKRPPRLPRPRPRPSPHPRP | -0.0333
58 | RRIRVRPPRLPRPRPRPCFNPRP | -0.421
59 | RRIRKRPPRLPRPRPRPIYEPRP | -0.0432
60 | RRIRFRPPRLPRPRPRPGMAPRP | -0.058
61 | RRIRQRPPRLPRPRPRPSIKPRP | -0.425
62 | RRIRSRPPRLPRPRPRPPAIPRP | 0.413
63 | RRIRPRPPRLPRPRPRPHYCPRP | -0.997
64 | RRIRWRPPRLPRPRPRPIHGPRP | 0.0966
65 | RRIRIRPPRLPRPRPRPVDVPRP | -0.675
66 | RRIRHRPPRLPRPRPRPARVPRP | 0.502
67 | RRIRDRPPRLPRPRPRPNTGPRP | -0.098
68 | RRIRKRPPRLPRPRPRPTKKPRP | 0.0465
69 | RRIRKRPPRLPRPRPRPYPNPRP | 0.0382
70 | RRIRSRPPRLPRPRPRPDILPRP | 0.115
71 | RRIRTRPPRLPRPRPRPFFWPRP | 0.276
72 | RRIRGRPPRLPRPRPRPINRPRP | -0.231
73 | RRIRPRPPRLPRPRPRPWMVPRP | 0.0262
74 | RRIRARPPRLPRPRPRPFTSPRP | 0.0705
75 | RRIRFRPPRLPRPRPRPSDTPRP | -0.308

Row | Sequence | shrunken log2 fold change
76 | RRIRKRPPRLPRPRPRPRVNPRP | 0.0555
77 | RRIRIRPPRLPRPRPRPNFAPRP | 0.0322
78 | RRIRVRPPRLPRPRPRPHGQPRP | -0.0326
79 | RRIRTRPPRLPRPRPRPHSWPRP | -0.0571
80 | RRIRYRPPRLPRPRPRPFYSPRP | -1.23
81 | RRIRMRPPRLPRPRPRPADIPRP | 0.067
82 | RRIRFRPPRLPRPRPRPHCQPRP | -0.125
83 | RRIRKRPPRLPRPRPRPGMVPRP | 0.8
84 | RRIRPRPPRLPRPRPRPEGGPRP | 0.329
85 | RRIRERPPRLPRPRPRPRFLPRP | -0.18
86 | RRIRSRPPRLPRPRPRPHAAPRP | 0.331
87 | RRIRRRPPRLPRPRPRPMFFPRP | -0.0274
88 | RRIRMRPPRLPRPRPRPYEQPRP | -0.222
89 | RRIRFRPPRLPRPRPRPPNGPRP | -0.0591
90 | RRIRVRPPRLPRPRPRPCLDPRP | -0.135
91 | RRIRFRPPRLPRPRPRPLIHPRP | -0.891
92 | RRIRARPPRLPRPRPRPKKEPRP | 0.0428
93 | RRIRIRPPRLPRPRPRPDFQPRP | -0.125
94 | RRIRLRPPRLPRPRPRPCVNPRP | -0.00681
95 | RRIRYRPPRLPRPRPRPWFVPRP | -0.271
96 | RRIRNRPPRLPRPRPRPNWCPRP | 0.23
97 | RRIRGRPPRLPRPRPRPFLTPRP | 0.0427
98 | RRIRARPPRLPRPRPRPWLYPRP | -0.0506
99 | RRIRHRPPRLPRPRPRPRQTPRP | 0.0257
100 | RRIRVRPPRLPRPRPRPSHEPRP | -0.225

Row | Sequence | shrunken log2 fold change
101 | RRIRPRPPRLPRPRPRPTTRPRP | 1.65
102 | RRIRYRPPRLPRPRPRPNADPRP | -0.0823
103 | RRIRIRPPRLPRPRPRPEHPPRP | -0.182
104 | RRIRRRPPRLPRPRPRPGFEPRP | 0.293
105 | RRIRIRPPRLPRPRPRPYIPPRP | -0.92
106 | RRIRWRPPRLPRPRPRPTTSPRP | 0.508
107 | RRIRHRPPRLPRPRPRPGKCPRP | -0.00911
108 | RRIRWRPPRLPRPRPRPAMMPRP | 0.306
109 | RRIRARPPRLPRPRPRPGIKPRP | -0.0359
110 | RRIRDRPPRLPRPRPRPGGNPRP | -0.0716
111 | RRIRFRPPRLPRPRPRPDCFPRP | -0.00719
112 | RRIRLRPPRLPRPRPRPRLIPRP | 0.123
113 | RRIRFRPPRLPRPRPRPSIGPRP | -0.139
114 | RRIRKRPPRLPRPRPRPLDVPRP | 0.0117
115 | RRIRYRPPRLPRPRPRPENIPRP | -0.105
116 | RRIRQRPPRLPRPRPRPKWDPRP | -0.0672
117 | RRIRARPPRLPRPRPRPKQNPRP | 0.481
118 | RRIRKRPPRLPRPRPRPQQRPRP | 0.0562
119 | RRIRIRPPRLPRPRPRPDSLPRP | -0.163
120 | RRIRWRPPRLPRPRPRPMRYPRP | -0.0679
121 | RRIRMRPPRLPRPRPRPKAYPRP | 0.0225
122 | RRIRYRPPRLPRPRPRPQFMPRP | -0.074
123 | RRIRMRPPRLPRPRPRPLEPPRP | 0.261
124 | RRIRIRPPRLPRPRPRPLYSPRP | -0.674
125 | RRIRWRPPRLPRPRPRPAWCPRP | 0.469
